Experimental data as given in the nanobody polyreactivity screen of Harvey et al. (2022).

Test: yeast display, Sf9 membrane polyspecificity reagent, FACS + sequencing; frameworks hold sequencing errors
Method in brief: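 Nanobodies came from a synthetic yeast display library in Saccharomyces cerevisiae BJ5465, induced with galactose for 36–48 hours and stained for 1 hour at 4 °C with 10% biotinylated, detergent-solubilized Sf9 membrane reagent. Cells were enriched on streptavidin microbeads and then FACS-sorted, with low and high (top ~1%) gates set on anti-HA fluorescence for expression and streptavidin fluorescence for reagent binding. Each polyreactivity label reflects the gate a clone came from. Genes were amplified by colony PCR, sequenced by MiSeq 2 × 250 and filtered by CDR length.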

Sequence	polyreactivity (PSR sort gate)
QVQLVESGGGLVQAGGSLRLSCAASGFIIYLYAMGWSRQAPGKERELLAAISRGGGTTYYADSVKGRFTISRDYAQNTVYLQMNSLKPEDTAVYYCAAETEYYSYRFDYWGQGTQVSVSS	high polyreactivity
QVQLVESGGGLVQAGGSLRLSCAASGFIIYSYAMGWYRQAPGKERELVAGITSDGRTYYADSVKGRFTISRDNAKNTVYLQMNSLKPEDTAVYYCAARYYLFYRVSPYYYWGQGTQVTVSS	low polyreactivity
QVQLVESGGGLVQAGGSLRLSCAASGFILGRYAMGWYRQAPGKERELVAAISIGGRTNYADSVKGRFTISRDNAKITVYFQMNSLKPEDTAVYYCATSFAVLLSQVDYWGQGTQVTVSS	low polyreactivity
QVQLVESGGGLVQAGGSLRLSCAASGFILKDNAMGWYRQAPGKERELVAAISSGGGTYYADSVKGRFTISRDNAKNTVSLKMNSLKPEDTAVYYCNADDLYSLNDSSEDYWGQGTQVTVSS	high polyreactivity
QVQLVESGGGLVQAGGSLRLSCAASGFILKPNAMGWYRQAPGKERELVAAISWSSGSTYYADSVKGRFTISRDNAKNTVYLQMNSLKPEDTAVYYCAKDLTQIYYGDDYWGQGTQVTVSS	low polyreactivity
QVQLVESGGGLVQAGGSLRLSCAASGFILPYYAMGWYRQAPGKERELVAAISDTGRTNYADSVKGRFTISRDNAKYTVYLQMNSLKPEDTAVYYCAARYYSPRYWFRYDSWGQCTQVTVSS	high polyreactivity
QVQLVESGGGLVQAGGSLRLSCAASGFILRGYAMGWYIQAPGKERELVDVITGRGDRTYYADSVKGRFTISRDNAKNTVYLQMNSLKPEETAVYYCAARAQPGGSSAIKMYYWGQGTQVTVSS	high polyreactivity
QVQLVESGGGLVQAGGSLRLSCAASGFILRKYAMGWYRQAPGKERELVAAINGRGGTYYADSVKGRFTISRDNAKNTVYLQMNSLKPEDTAVYYCAAVEWYGYYTYTIDAYDYWGQGTQVTVSS	high polyreactivity
QVQLVESGGGLVQAGGSLRLSCAASGFILRNNAMGWSRQAPGKEREFVAAISSGTRTNYADSVKGRFTISSDNAKNTVYLQMNSLKPEDTAVYYCDAYPTRYYVGYDYWGQGTQVTVSS	high polyreactivity
QVQLVESGGGLVQAGGSLRLSCAASGFILRYYAMGWYRQPPGKERELVAAISWSGGSTYYADSVMGRFTISRDNAKNTVYLQMNSLKPEDTAVYYCAADRYAILFYAEDYWGQGTQVTVSS	low polyreactivity
QVQLVESGGGLVQAGGSLRLSCAASGFILSFYTMGWYRQEPGKERELVAVISSRGGRTYYADSVKGRFTISRDNAKNTVYLQMNSLKPEDTAVYYCNKRYYFPKPFDYWGQGTQVTVSS	high polyreactivity
QVQLVESGGGLVQAGGSLRLSCAASGFILSPNTMGWYRLAPGKERELVAAISSDVSTYADSVKGRFTISRDNAKNTVYLQMYSLKPEDTAVYYCNADDFGYASYESWGQGTQVTVSS	low polyreactivity
QVQLVESGGGLVQAGGSLRLSCAASGFILTSYAMGWNRQAPGKERELVAAISSRGGRTYYADSVKGRFTISRDNAKNTVYLQMNSLKPEDTAVYYCNAVVYVVGDFDYWGQGTQVTVSS	high polyreactivity
QVQLVESGGGLVQAGGSLRLSCAASGFILYFNAMGWYSQAPGKERELVAAITSDGGSTYYADSVKGRFTISRDNAKNTVYLQMNSLKPEDTAVYYCAADASTWYTEEYWGQGTQVTVSS	low polyreactivity
QVQLVESGGGLVQAGGSLRLSCAASGFILYYYVMGWYRQAPGKERELVAAISTSGTSTYYADSVKGRFTISRDNAKNTVYLQMNSLKPEDTAVYYCAAEKDSSDIMEYWGQGTQVTVSS	high polyreactivity
QVQLVESGGGLVQAGGSLRLSCAASGFISAYYAMGWYRQAPGKEMELVAAISWNGGRTFYADSVKGRFTISRDNAKNTVYLQMNSLKPEDTAVYYCAADGRLRGYGYWGQGTQVTVSS	high polyreactivity

Sequence	polyreactivity (PSR sort gate)
QVQLVESGGGLVQAGGSLRLSCAASGFISAYYAMGWYRQAPGKERELVAAISWNGGRTFYADSVKGRFTISRDNAKNTVYLQMNSLKPEDTAVYYCAADGRLRGYGYWGQGTQVTVSS	high polyreactivity
QVQLVESGGGLVQAGGSLRLSCAASGFISFAYAMAWYRQAPGKERELVAGISRSGDSTYYADSVKGRFTISRDNAKNTVYLQMNSLKPEDTAVYYCAARQVVWFDYTTAQVGSYKVNYWGQGTQVTVSS	low polyreactivity
QVQLVESGGGLVQAGGSLRLSCAASGFISFDNAMGWYRQAPGKERELVAAIRSGGSTNYADSVKGRFTISRDNAKNSVYLQMNSLKPEDTAVYYCAALDQYGYYQKYYYWGQGTQVTVSS	low polyreactivity
QVQLVESGGGLVQAGGSLRLSCAASGFISLRNTMGWYRQAPGKERELVAAINWSGGSTYYADSVKGRFTISRDNAKNTVYLQMNSLKPEDTAVYYCAKGPWPPIYRLFPGYAKFGYWGQGTQVTVSS	low polyreactivity
QVQLVESGGGLVQAGGSLRLSCAASGFISPPYAMGWYRQAPGKERELVAAIRSSGGSTYYADSVKGRFTISRDNAKNTVYLQMNSLIPEDTAVYYCNADWIYISSYGWYSYDYWGQGTQVTVSS	high polyreactivity
QVQLVESGGGLVQAGGSLRLSCAASGFISPSNAMGWYRQAPGKERELVAAIRSSDGSTYYADSVKGRFTISRDNAKNTVYLQMNSLKPEDTAVYYCAAGGSYYRDDYWGQGTQVTVSS	low polyreactivity
QVQLVESGGGLVQAGGSLRLSCAASGFISTINVMGWYRQAPGKERELVAAITYIDGSTFYADSVKGRFTISRDNAKNTVYLQMNSLKPEDTAVYYCAADLYQWGAVFLYVRSTGLDYWGQGTQVTVSS	low polyreactivity
QVQLVESGGGLVQAGGSLRLSCAASGFISYPYAMGWSRPAPGKERELVAAISSSGGSTYYADSVKGRFTISRDNAKNTVYLQMNSLIPEDTAVYYCAARGFYRSYYWGQGTHVTVSS	high polyreactivity
QVQLVESGGGLVQAGGSLRLSCAASGFITWGNAMGWYRQAPGKERELVAAISWRDARTYYADSVKGRFTISRDNAKNTVYLQMNSLKPEDTAVYYCNAVTAYVSRNLRGYRWFDYWGQGTQVTVSS	low polyreactivity
QVQLVESGGGLVQAGGSLRLSCAASGFIVGHYAMGWYRQAPGQEREFVAAITSGGTTYYADSVKGRFTISRDNAKNTVYLQMNSLKPEDTAVYYCNADDAFRYYWLGLYDYWGQGTQVTVSS	low polyreactivity
QVQLVESGGGLVQAGGSLRLSCAASGFIVTANGMGWDRQAPGQERELVASISRRGGSTYYADSVKGRFTISRDNAKNTVYLQMNSLKPEDTAVYYCAARFYQEWGQGTQVTVSS	high polyreactivity
QVQLVESGGGLVQAGGSLRLSCAASGFIYEDYAMGWYRQAPGKERELVAAITWRGGRTYYADCVKGRYTISRDNAKNTVYLQMNSLKPEDTAVYYCRPLVYSYASRYGYWGQGTQVTVLS	high polyreactivity
QVQLVESGGGLVQAGGSLRLSCAASGFIYFDYAMGWDRQAPGKERELVAGISRSGDSTYYADSVKGRFTISRDNAKNTVYLQMNSLKPEDTGVFYCAVVTYRSKAHSSRNGKYYYWGQGTHVTVSS	low polyreactivity
QVQLVESGGGLVQAGGSLRLSCAASGFIYGWYAMGWYRQAPGKERELVAAINWSGTSTYYADSVKGRFTISRDNAKNTVYLQMNSLKPEDTAVYYCAAYFQKLPTTGYDYWGQGTQVTVSS	low polyreactivity
QVQLVESGGGLVQAGGSLRLSCAASGFIYNKYTMGWYRQAPGKERELVAAIRSSGGSTYYADSVKGRFTISRDNAKNTVYLQMNSLKPEDTAVYYCNALPYQVWKRYSWGQGTQVTVSS	high polyreactivity
